Key:
[1] = tested on: Notch1; experiment: Notch1 expression in HL-1 atria muscle cells treated with ADM; format: cell-based, mouse; details: HL-1 cells; ADM 0.25, 0.5, 1.0 μM, 48 hrs
[2] = tested on: ISL-1; experiment: ISL-1 positive cardiac progenitor cells in epicardium and sub-epicardium (staining, qRT-PCR); format: in vivo, rat; details: protein injection, dose dependent manner, after 14 days treatment
Method: (§1) There were 120 rats divided into three control groups of 30 rats each and a treatment group of 30 rats: (1) normal control rats; (2) ADM injection only; (3) ADM plus UTMD with a DsRed reporter gene (pXL-BASII-CI-DsRed/pCI-hyPB); (4) ADM plus UTMD with ANGPTL8 (pXL-BASII-CI-ANGPTL8/pCI-hyPB). All rats were euthanized at 3 days, 7 days, 14 days, 21 days and 28 days after UTMD. The thymidine analog, 5-bromo-2-deoxyuridine (BrdU) (100 mg/kg) was injected intraperitoneally 6 hours prior to euthanizing.
(§2) 15 rats divided into (1) normal control rats; (2) ADM plus Saline inject rats; (3) ADM plus ANGPTL8 protein at dose of 5 μg/kg/day intramuscular inject for 14 days; (4) ADM plus ANGPTL8 protein at dose of 20 μg/kg/day intramuscular inject for 14 days; (5) ADM plus ANGPTL8 protein at dose of 40 μg/kg/day intramuscular inject for 14 days; All rats were euthanized at 14 days after starting ANGTPL8 protein inject. The thymidine analog, 5-bromo-2-deoxyuridine (BrdU) (100 mg/kg) was injected intraperitoneally 6 hours prior to euthanasia. […]
Total RNA was isolated from 100 mg of pancreas, liver and left quadratic skeletal muscle using the RNeasy mini kit (Qiagen). Real-time quantitative RT-PCR (qRT-PCR) analysis was performed on an ABI 7700 Sequence Detector (Applied Biosystems, Grand Island, N.Y., USA) using SYBR Green (RT2 SYBR Green qPCR Kit; Qiagen, Boston, Mass., USA). […]

[3] = tested on: rat hearts with established adriamycin cardiomyopathy; experiment: Echocardiography of heart structure and function in established adriamycin cardiomyopathy; format: in vivo; details: protein therapy; 5, 20, 40 μg/kg/day intramuscular for 14 days; ADM cardiomyopathy rats
Method: The protocol was planned to test the hypothesis that delivery of ANGPTL8 by UTMD could reverse established adriamycin (ADM) cardiomyopathy defined as a fractional shortening <30% by echocardiography after injection of ADM (Iliskovic, et al., 1997) at total dose of 15 mg/kg/ip, 2.5 mg/kg/ip 6 times over 2 weeks.
as §1, §2

[4] = ELISA for fasting plasma human ANGPTL8; format: in vivo, rat; details: protein therapy; intramuscular daily for 14 days, 5, 20, 40 μg/kg/day; day 3, 7, 10 and 14
Method: as §1
15 rats divided into (1) normal control rats; (2) ADM plus Saline inject rats; (3) ADM plus ANGPTL8 protein at dose of 5 μg/kg/day intramuscular inject for 14 days; (4) ADM plus ANGPTL8 protein at dose of 20 μg/kg/day intramuscular inject for 14 days; (5) ADM plus ANGPTL8 protein at dose of 40 μg/kg/day intramuscular inject for 14 days; All rats were euthanized at 14 days after starting ANGTPL8 protein inject. The thymidine analog, 5-bromo-2-deoxyuridine (BrdU) (100 mg/kg) was injected intraperitoneally 6 hours prior to euthanasia. Human recombinant protein ANGTPL8 protein was purchased from Phoenix Pharmaceuticals (Cat #056-61, Burlingame, Calif., USA).
Fasting venous blood was collected in EDTA tubes from the tail vein, and plasma lipids were measured using standard enzymatic assays. Human ANGTPL8 was measured using ELISA (Phoenix Pharmaceuticals).

Row | Notch1 expression [1] | Molecule | ISL-1 positive cells in epicardial layer [2] | LV fractional shortening [3] | LV mass [3] | human ANGPTL8 in fasting plasma [4]
1 | significantly inhibited | COc1cccc2c1C(=O)c1c(O)c3c(c(O)c1C2=O)C[C@@](O)(C(=O)CO)C[C@@H]3O[C@H]1C[C@H](N)[C@H](O)[C@H](C)O1 [ADM, adriamycin] |  |  |  | 
2 |  | ANGPTL8 protein: Human recombinant ANGPTL8 protein purchased from Phoenix Pharmaceuticals (Cat #056-61), injected intramuscularly (protein, UniProt Q6UXH0 22-198, looked up) Angiopoietin-like protein 8: APMGGPELAQHEELTLLFHGTLQLGQALNGVYRTTEGRLTKARNSLGLYGRTIELLGQEVSRGRDAAQELRASLLETQMEEDILQLQAEATAEVLGEVAQAQKVLRDSVQRLEVQLRSAWLGPAYREFEVLKAHADKQSHILWALTGHVQRQRREMVAQQHRLRQIQERLHTAALPA | activated | some degree of restoration | some degree of restoration | detected
